As usually defined, the Kd is the free concentration of one partner at which half of the binding sites on the other are occupied at equilibrium, for simple one-to-one binding. A low value points to higher affinity.

Our source for the Kd values is PMC4941522.

Data set [1] concerns Sso10a2 (Sulfolobus solfataricus). The experiment in a line: EMSA. The following applies: TPM buffer conditions; data not shown; EMSA: TPM buffer II (composition not in the material), 69 nM DNA, 10 min, ~23 °C, 1% agarose 0.5x TBE; TPM: 100 mM or 20 mM NaCl. Background: A gel shift assay detects complexes by their altered migration in electrophoresis.
In data set [2] the test system is Sso10a1 (Sulfolobus solfataricus). The experiment in a line: EMSA. The following applies: TPM buffer conditions; data not shown; EMSA: TPM buffer II (composition not in the material), 69 nM DNA, 10 min, ~23 °C, 1% agarose 0.5x TBE; TPM: 100 mM or 20 mM NaCl.

Turning to 685 bp DNA substrate (TPM/EMSA), the Kd in data set [1] and in data set [2] was 1 nM in each case.
